{
  "source": "the DeepSol protein solubility set",
  "data": [
    {"assay": "soluble on expression in E. coli; label from the status in PepcDB or PDB records", "values": [
      {"sequence": "MGSDKIHHHHHHMGPYRFVNREFLIITYRTDMDRLREIVPEPLEVKEPLVHYEFIRMPDSTGFGDYTESGQVIPVEYKGQPGGYTLAMYLNDHPPIAGGRELWGFPKKLAQPTLQTHIDTLLGTLDYGPVRVATGTMGYKHQELDLEEQAKRLAGANFLLKIIPHVDGSARVCELVRYYLQDIEMKGAWTGPASLQLAPHALAPVADLPVLEIVEARHLLADLTLGLGEVVYDYLAQ", "soluble on expression in E. coli": "not soluble"},
      {"sequence": "EITPLFFQKELATPVDNLKPYTALQMEGRDIYIREGCSNCHSQMIRPFRAETERYGHYSVAGESVWEHPFLWGSKRTGPDLARVGGRYSDDWHIAHLTDPRSVVPESNMPAYSWLNTDTLDGELTGKKLATFNFLTRNRSHKDENGNAIPLYTQAEIDGAKDAVKGKTEMSALIAYLQSLGH", "soluble on expression in E. coli": "not soluble"},
      {"sequence": "MFSIQQPLLVFSDLDGTLLDSHSYDWQPAAPWLTRLREANVPVILCSSKTSAEMLYLQKTLGLQGLPLIAENGAVIQLAEQWQEIDGFPRIISGISHGEISLVLNTLREKEHFKFTTFDDVDDATIAEWTGLSRSQAALTQLHEASVTLIWRDSDERMAQFTARLNELGLQFMQGARFWHVLDASAGKDQAANWIIATYQQLSGKRPTTLGLGDGPNDAPLLEVMDYAVIVKGLNREGVHLHDEDPARVWRTQREGPEGWREGLDHFFSAR", "soluble on expression in E. coli": "soluble"},
      {"sequence": "MARKRRAARVKDKWTLKKWFTLIAPEYFGMAELGETPADDASKVVGRTVETTLAELTNDYSNQNTYKKLIFKVYRVAGDNAYTKFWRFELTREYLNSLTRRRTSKIEDIVDVTTADGYKLRVKSVVFTVRRCKTSQKRAIRAIMRQIVVEKASSLNFVQFLQECVLGKVPAEIYKNAKKIYPIRRVEIRKIELLAEPAEAETQPAVAEAVALEHHHHHH", "soluble on expression in E. coli": "soluble"},
      {"sequence": "MSLINFGIIGAGNIANRFADSLSHFKDANLYAVACRGIEKAAAFQRKHPCQLIYDDYDELLSNKDIDIVYIAVPHGFHYLWISKALKKGKAVLCEKPATLNAEQMKSVQKLAEAKNIFFMEAMKSRFTPAYQEIKTIINNGEIGKIISIDSSFCREISKKTATYHFQPIQGGCLLDIGIYNVALTEDFAKTLPKVEVLENKMDISGVESYTKAKLLFPNLSATIECAFDRNKQTEATIKGEKGQIEIKNFHRAESFIVKTSSGTKNYHIAYEQDDFHGEIAHVIQCYGKNKTESNNMPISDSVNCALIIEKIKNQIPELAEGHHHHHH", "soluble on expression in E. coli": "soluble"},
      {"sequence": "VDYKEWYDLRIEALQMQAQMHRSPLRGLIGARVGLIPHQLYIAHEVGQRFAPRVLLADEVGLGKTIEAGLIIHQQLKTGRAERILILVPDSLQYQWMIEMRRRFNLQFSLFDLTRTASIKEHDPDLNPFLTEQCIIASVDLMVDHDDLREQALEAGFDLLVVDEAHHLMWNEEEGGNDRYDLVEELAQQTPGVLLLTATPE", "soluble on expression in E. coli": "not soluble"},
      {"sequence": "MDLKVVVSLSSRLYTDEIAKMQQRIGCILPLASTHGTQNVQGLGLGQVYSLETVPDYVSMYNYLSDCTLAVLDEVSVDSLILTKIVPGQTYAIKNKYQPFFQWHGTGSLSVMPPVFGREHATVKLESNDVDIVFPMVLPTPIAEEVLQKILLFNVYSRVVMQAPGNADMLDVHMHLGSVSYLGHHYELALPEVPGPLGLALLDNLSLYFCIMVTLLPRASMRLVRGLIRHEHHDLLNLFQEMVPDEIARIDLDDLSVADDLSRMRVMMTYLQSLASLFNLGPRLATAAYSQETLTATCWLR", "soluble on expression in E. coli": "not soluble"},
      {"sequence": "MKKRLNIGLVGLGCVGSAVAKILQENQEIIKDRAGVGIGIKKAVVRDVKKHKGYPFEISNDLESLIEDEEIDIVVELMGGVEAPYLLAKKTLAKQKAFVTANKAMLAYHRYELEQTAKNTPIGFEASVCGGIPIIKALKDGLSANHILSFKGILNGTSNYILSQMFKNQASFKDALKDAQHLGYAELNPEFDIKGIDAAHKLLILASLAYGIDAKLEEILIEGIEKIEPDDMEFAKEFGYSIKLLGIAKKHPDCIELRVHPSMIKNECMLSKVDGVMNAISVIGDKVGETLYYGAGAGGEPTASAVISDIIEIARKKSSLMLGFETPQKLPLKPKEEIQCAYYARLLVSDEKGVFSQISAILAQNDISLNNVLQKEILHSNKAKILFSTHTTNEKSMLNALKELENLQSVLDTPKMIRLEN", "soluble on expression in E. coli": "not soluble"},
      {"sequence": "MCLAIPMQIESIDGFTARCAAKGVWRDVSLFMMQDAPPEVGDFVMVHVGYAIQKVTEADARSAWELLDQILEENGA", "soluble on expression in E. coli": "not soluble"},
      {"sequence": "MGSDKIHHHHHHLAQLYFYYSAMNAGKSTSLLQSSYNYRERGMNTLVLTAAIDDRYGVGKVASRIGIQADATVFGSEDNLMDLIATHHSQQQLHCVLVDESQFLSKTQVRQLTDVVDKLDIPVLCYGLRSDFRGELFIGSQYLLAWADKLVELKTICFCGRKANMVVRRDGAGNPVRDGAQVAIGGNESYESMCRKHFSELVWD", "soluble on expression in E. coli": "not soluble"},
      {"sequence": "MAHHHHHHMGGAHNEGVQDGGAQDATTLYDELYLLFDEYIVRNCKQPNTYESLFCKKEFVQFAKLHGTSVVVTSPKKEIKNKDEIIDELIYAFKLFAKYTSMCDFFSKNEEVDDINTIYLKFLLIPYILGVLCYETISMEIRSDRLKEAKLYFGEFINVVNVYKIAPVEDYLLDEGGEVNQAMNRRNIKVKRAKDEKKLQDFYDDMIKMNVKKGSSQNYNHLCFADHMEEEQIREIYLSLIKCKCLQTLNMMDLIDTEIEVLEMRNRQQVQDKQHQNGKPTQGTKDTHDGQPPHQNKHPKDGIKKPWLFTIKKNMPLADMTQMRNYYRDLVFTPAHNLPTISLEECAKIEMEYALKGEGMAPRSEEERRGNPKSGTIKGAAQNGTDDEEDYEKSSKEESEKELMDREWDDWKDMHQKGIGNKNRNVA", "soluble on expression in E. coli": "soluble"},
      {"sequence": "MSIEVPISIPKTLIIIPAYNEEEAIADTLTRLLELKQHFTALSICVINDGSQDKTAQIVKNFPVHLINLPYNLGIGSAVQTGYKYAYENGYDIAIQFDADGQHNPDDLYKIIQPIAEGQCDMVLGSRFTEKTAYKGSISRRIGIFYFTALLKVLTKQTFMDPTSGYRAINREVITIFAHNYPKDYPEPEVLIHLKKKKLRINEISVNMQERQGGQSSITPLKSAYYMIKVSLAILMQKIVKGLEHHHHHH", "soluble on expression in E. coli": "not soluble"},
      {"sequence": "MSLPLIIPENIPAYELLKEHAFIMGLRRAKHQDIRPQEILIVNLMPKKIETENQILSLLANSPLQVNITLLATTSYVGKNTPFTHLEKFYKGLEEVKKHKFDGAIVTGAPVEQMDFEKVAYWEELLEIFDFLKQNVTSSMYICWGAMAALKYFYGVDKISLDKKIFGVYKHDKVSPDLLLTNLDEKVLMPHSRHSSMDEEQILALQKQGKLKILLRNKKIGSALLRDEKNIFILGHLEYFKETLHQEYVRDNFIQKAKNYYDKKGNIKYNWRSNANTIFANWLNYDVYQSTPFVLEGHHHHHH", "soluble on expression in E. coli": "soluble"},
      {"sequence": "MGSDKIHHHHHHMNAVQVLNFQQNSVRTVADNKGELWFLANDVCEILGYTNPRRTVDLHCKSRGVTKRYTPTTSGEQEMTYINEPNLYRLIIKSRKPAAEAFEEWVMETVLPAIRKTGGCQVGPKTTADDRTGLRQAVAALVGRKGIDYSSAYSMIHQRFNVESIEDLPAGKLPEAVAYVHALTLHTGLTGEVLDAPPKAEPKLPIDGNSLADIAAMVYYGTWMIESGKDISAPLKQLGCRQAVTMWTVWHETRPILKRSAAALEVLRGYADKDASDRIAACLEGIYGKATVR", "soluble on expression in E. coli": "not soluble"},
      {"sequence": "MIVIPMAGMSSRFFKAGYTQPKYMLEAHGQTLFEHSVNSFAAYFASTPFLFIVRNVYDTAVFVREKATQLGIKQFYIAELHTETRGQAETVTLGLEELAKQGVDYQGSITVFNIDTFRPNFVFPDISQHSDGYLEVFQGGGDNWSFAKPEHAGSTKVIQTAEKNPISDLCSTGLYHFNRKEDYLEAYREYVARPSQEWERGELYIAPLYNLLIQKGLNIHYHLIARHEVIFCGVPDEYTDFLRQPQPLEHHHHHH", "soluble on expression in E. coli": "soluble"},
      {"sequence": "GPGSMAKKEVVWLGTPTEADGSELSSPFTSRIGGSAVLFREAPTYSIFNCPKCRSSRWVSLLTQIYAPLDVYDRIVYVLICSSCSEGKGSFCFAVRSQNFNPSYVQSSPAPVVGGGEDEGITFVEDGDWGDDDPKYVDEGPNEVCITNLTCTTMADECKVGSPTQSTDVSSVLVPHGTKVPVEGFCYPCFVLNIFEEPPKPKLCYGTVPDQLLKAQQTYGEDAVETTVVEDEDEPLAEKLLRKYVDRIGRVPSQCVRWGPGQKPLRSSPAPIVIPRCPRCSNERRYELQLTSPIIYFLTKGKEEKDHSLHFGSVLVYTCGGNCNVQPYSLEHCVVEDEV", "soluble on expression in E. coli": "not soluble"},
      {"sequence": "MAERTHFMELALVEARSAGERDEVPIGAVLVLDGRVIARSGNRTRELNDVTAHAEIAVIRMACEALGQERLPGADLYVTLEPCTMCAAAISFARIRRLYYGAQDPKGGAVESGVRFFSQPTCHHAPDVYSGLAESESAEILRQF", "soluble on expression in E. coli": "soluble"},
      {"sequence": "TKRYYKSAFPVRICVIQYEMKKIYSFEEFANQVEYYVDVASDARSDFAVFPEIFTTQLMSFLEERSPSLAVQRITEYTEDYISLFTDLAVKYNVNIIGGSHFVEEEGKIYNIAYLFRRDGTIEKQYKLHITPNERKWWGISAGDQVRVFDTDCGKIAIQICYDIEFPELARIAADKGAKIIFTPFCTEDRQGYLRVRYCSQARAVENQIYTVISGTVGNLPQTENMDIQYAQSGIFAPSDFEFARDGIVGETNPNIEMVVIGDVDLEILRRQRQNGTVRQLKDRRRDIYHIQYKK", "soluble on expression in E. coli": "not soluble"},
      {"sequence": "MSLVRNMTIASELGYLHVPEGVLIDLKKVDSLRDDEIVLMCTGSQGEPMAALSRMANGDHKVQVGHGDTVILASSLIPGNENAVFRIINGLTRLGARVVHGGNAKVHVSGHASAGELLYCYNVLKPKNVMPVHGEVRHLVANGALAVRTGVPADRVVLAEDGVVVDLVDGRASVVGAVPCGYVYVDGSSVGEITDAELKDRRILGEEGFVSVFAVVDSATGKVLAGPQILARGFAEDDKVFQDIQPEVVKALEDAIAGGATDTHQLQQVMRRVIGRWVSNRLRRRPMIVPVVVEAEGHHHHHH", "soluble on expression in E. coli": "soluble"},
      {"sequence": "MSDKKDFENNYEKTEDAWPIGVELVEHEISTGIWVTTQWQLTGFALNPTEETPDVCLLQLHKDERTDYRFNLSSQQPKLFLVMDNVESGEKPAIQLLTASQSVAAQYMDGDNLVLSNDMPLAVQAWMEAFIGRHGELLEVRRKKRKGAGRANGN", "soluble on expression in E. coli": "not soluble"},
      {"sequence": "MPFRPQVIIGELMKTFGTNTNALPMSREETKTVEKFTRILKDAETDDLLIQSDDEEEVFGGIVDEEDWKPDDDDPSACVVPDKVNFSSGAAIDVAMVHSAVEFMTDVRTKKLRSFASMQRRYRFIKTQHDMQKLRVFAKNNEIQCSRVSQFSTLSGLLRTKVFEAIDDRISIDKFTLRRLAVQLNDEHVHIEGFQASDGWLKKWKKTNGLVSRHVTTFITRANYVNKELTEQAAKKFVEEVKAELATLDPDVVYNCDQSGFTKEQYCKRTLAPKGVKRVERLVQSKDALTHSYTILPMLSASGKLAPKLYVVLQEKGGKFPKKGHFSPDNLIIRANTSHIMNKQLMVDWVESAVCDPSMPTEVVLLLDAWPAWKNEGDVQAAALSGNTVHVRSIPPGATSFIQPCDLYFFCPLKNFVKKVNAYIIYSGITFKTSERDNLLRVISAVYRVFRAPIFQSCWKYGWIQGGYIDDQHVKVETPSKFCFKVSGYCSQKKTRDTMCQDTAFLLCPYCKKVLCFNHWVGCGFPAHKCKC", "soluble on expression in E. coli": "not soluble"},
      {"sequence": "GASLAPLRRMREVAARVSANSLTTRLDASRMPEELRGLAGELNAMLARLEEAFQRLSAFSADIAHELRTPLTSLLTQTQVVLSRPRSLEDYREALHGNLEELERLTAMVNDMLLLAKADHGLLAPSRQALDLGAEVDSLLEFYQPLAEDRDIRLLREGSLSLPGDRGMLRRVLANLLDNALRFTADGGEIRIRLGDRRLSVENQGPAIPPERLPRLFDRFYRADPARREGQGEHAGLGLAICRSIVQAHGGEIRCESADGWTRFVIDFAR", "soluble on expression in E. coli": "not soluble"}
    ]}
  ]
}
